Here are results for eight molecules from US5846764, “Materials and methods relating to proteins that interact with casein kinase I” (ICOS Corporation, dated 1998).

Experiment [1] concerns the target lexA::HRR25 K→R fusion (pBTM116::HRR25K→R) (E. coli; S. cerevisiae) (UniProt P0A7C2). The experiment can be described thus: yeast two-hybrid (lexA bait, GAL4 prey), liquid β-galactosidase assay.
Experiment [2] has as its target lexA::HRR25 non-catalytic domain fragment (pBTM116::Non-catalytic) (E. coli; S. cerevisiae) (UniProt P0A7C2). The experiment is described as above.
Experiment [3] concerns the target lexA::HRR25 fusion (pBTM116::HRR25) (E. coli; S. cerevisiae) (UniProt P0A7C2). Described as above.
Experiment [4] concerns the target T1, lexA DNA binding domain alone (pBTM116 vector) (E. coli, UniProt P0A7C2). The experiment can be described thus: yeast two-hybrid, liquid β-galactosidase assay. The procedure: To construct pairwise combinations between pBTM116-based plasmids and pGAD-based plasmids, yeast strains of opposite mating types were replica plated in a crossed pattern on YEPD medium (Bio101) and were allowed to mate for 18 hours. Diploid cells were selected by a second replica plating onto SD-leucine, -tryptophan medium to select for cells that contained both pBTM116-type and pGAD-type plasmids. The isolated diploids were grown in liquid SD-leucine, -tryptophan medium to a cell density of 2×10^7 cells/ml and the level of interaction of the kinase and interacting protein, as determined by beta-galactosidase activity, was determined from cells that were lysed by adding 3 drops of chloroform and 50 µl of 0.1 % SDS to 2×10^6 cells suspended in 0.1 ml of Z buffer and subsequently adding 0.2 ml of the chromogenic substrate o-nitrophenyl-β-D-galactoside. β-galactosidase assays were terminated by adding 0.5 ml of 1M Na_2CO_3 and activity was measured by reading absorbance at 420 nm using a Milton Roy spectrophotometer (Rochester, N.Y.). In this assay, the degree of protein/protein interaction is directly proportional to the level of β-galactosidase activity. […] Values were normalized to vector alone controls.

Experiment [5] concerns the target lexA::HRR25 non-catalytic domain fragment (pBTM116::Non-catalytic) (E. coli; S. cerevisiae, UniProt P0A7C2). The experiment can be described thus: yeast two-hybrid (lexA bait, GAL4 activation domain prey), liquid β-galactosidase assay, normalized to vector alone.
The target in experiment [6] is T1, lexA DNA binding domain alone (pBTM116 …). The experiment is described as above.
Experiment [7] addresses lexA::HRR25 catalytic domain fragment (pBTM116::Kinase domain) (E. coli; S. cerevisiae) (UniProt P0A7C2). Described as above.
In experiment [8] the target is lexA::HRR25 K→R fusion (pBTM116::HRR25K→R) (E. coli; S. cerevisiae) (UniProt P0A7C2). Described as above.
Experiment [9] addresses lexA::NUF1 fusion (pBTM116::NUF1) (E. coli; S. cerevisiae) (UniProt P0A7C2). Described as above.
Experiment [10] concerns the target lexA::HRR25 fusion (pBTM116::HRR25) (E. coli; S. cerevisiae) (UniProt P0A7C2). The experiment is described as above.
In experiment [11] the target is lexA::HRR25 non-catalytic domain fragment (pBTM116::Non-catalytic) (E. coli; S. cerevisiae) (UniProt P0A7C2). The experiment is described as above.

Chain of lexA::HRR25 catalytic domain fragment (pBTM116::Kinase domain) (E. coli; S. cerevisiae) (P0A7C2 1-202, tags or fused parts left off): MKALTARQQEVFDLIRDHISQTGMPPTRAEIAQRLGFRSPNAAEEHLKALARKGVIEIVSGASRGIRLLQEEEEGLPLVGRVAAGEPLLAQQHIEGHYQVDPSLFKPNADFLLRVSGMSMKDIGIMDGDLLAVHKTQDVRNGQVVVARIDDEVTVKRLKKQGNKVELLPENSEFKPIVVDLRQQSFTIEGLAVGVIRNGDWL

On to “GAL4::KAR3 fusion (pGAD::KAR3) (from UniProt P17119)”, for which the units of β-galactosidase activity is 75 units in [1], 60 units in [2] and 15 units in [3].

Take “GAL4::CIN8 fusion (pGAD::CIN8) (from UniProt P27895)”: the units of β-galactosidase activity is 28 units in experiment [1], less than 0.1 units in experiment [2] and 5 units in experiment [3].

In the case of “GAL4::KIP2 fusion (pGAD::KIP2) (from UniProt P28743)”, the units of β-galactosidase activity in [1] was 16 units; in experiment [2], less than 0.1 units; in experiment [3], 10 units.

With “GAL4::KIP1 fusion (pGAD::KIP1) (from UniProt P28742)”, the figures for the units of β-galactosidase activity in [1], in experiment [2] and in experiment [3] were 55 units, 70 units and 16 units, respectively.

B1: GAL4 activation domain::TIH4 library clone (pGAD::TIH4) (protein)
chain: RRMISELKNRSNIGEPLTKSSNESTYKDIKATGNDGDPNLALMRAENRVLKYKLENCEKLLDKDVVDLQDSEIMEIVEMLPFEVGTLLETKFQGLESQIRQYRKYTQKLEDKIMALEKSGHTAMSLTGCDGTEVIELQKMLERKDKMIEALQSAKRLRDRALKPLINTQQSPHPVVDNDK
Turning to B1, the units of β-galactosidase activity in [1] is 66 units; in experiment [3], 70 units.

B2: GAL4 activation domain::TIH2 library clone (pGAD::TIH2) (other)
chain: RSSSNLSLDSLSKMSGSGNNNTSNNQLFSTLMNGINANSMMNSPMNNTINNNSSNNNNSGNIILNQPSLSAQHTSSSLYQTNVNNQAQMSTERFYAPLPSTSTLPLPPQQLDFNDPDTLEIYSQLLLFKDREKYYYELAYPMGISASHKRIINVLCSYLGLVEVYDPRFIIIRRKILDHANLQSHLQQQGQMTSAHPLQPNSTGGSMNRSQSYTSLLQAHAAAAANSISNQAVNNSSNSNTINSNNGNGNNVIINNNSASSTPKISSQGQFSMQPTLTSPKMNIHHSSQYNSADQPQQPQPQTQQNVQSAAQQQQSFLRQQATLTPSSRIPSGYSANHYQINSVNPLLRNSQISPPNSQIPINSQTLSQAQPPAQSQTQQRVPVAYQNASLSSQQLYNLNGPSSANSQSQLLPQHTNGSVHSNFSYQSYHDESMLSAHNLNSADLIYKSLSHSGLDDGLEQGLNRSLSGLDLQNQNKKNLW
As to B2, in experiment [4], the binding result is recorded as “no binding (tested: <5)”. Further, the “relative β-galactosidase activity” value in [5] is less than 5; in experiment [6], less than 5; in [7] it was 160; in experiment [8], 150; in experiment [9], less than 5; in experiment [10] it was 650.

B3: GAL4 activation domain::TIH3 library clone (pGAD::TIH3) (other)
chain: IKPMVESNCKNGQISATKDLVKLVEEFVEKYVELSKEKADTLKPLPSVTSFGSPRKVAAPELSMVQPESKPEAEAEISEIGSDRWRFNWVNIIILVLLVLNLLYLMKLNKKMDKLTNLMTHKDEVVAHATLLDIPAQVQWSRPRRGDVL
Turning to B3, the binding result in experiment [4] is on record as “no binding (tested: <5)”. The “relative β-galactosidase activity” value in [6] is less than 5; in [7] it was 130; in experiment [8], 30; in experiment [9] it was 10; in experiment [11], less than 5; in [10], 100.

B4: GAL4 activation domain::TIH1 library clone (pGAD::TIH1) (other)
chain: DQLKSYAEEQLKLLLGITKEEQIDPGRELLNMLHTAVQANSNNNAVSNGQVPSSQELQHLKEQSGEHNQQKDQQSSFSSQQQPSIFPSLSEPFANNKNVIPPTMPMANVFMSNPQLFATMNGQPFAPFPFMLPLTNNSNSANPIPTPVPPNFNAPPNPMAFGVPNMHNLSGPAVSQPFSLPPAPLPRDSGYSSSSPGQLLDILNSKKPDSNVQSSKKPKLKILQRGTDLNSLKQNNNDETAHSNSQALLDLLKKPTSSQKIHASKPDTSFLPNDSVSGIQDAEYEDFESSSDEEVETARDERNSLNVDIGVNVMPSEKDSRRSQKEKPRNDASKTNLNASAESNSVEWGAG
With B4, the binding result in [4] is listed as “no binding (tested: <5)”. Also, the “relative β-galactosidase activity” value is less than 5 in experiment [6]; 820 in [7]; 100 in experiment [8]; less than 5 in experiment [9]; less than 5 in experiment [11]; 850 in [10].
